Assay results reported in paper PMC10743661, “The Link of mRNA and rRNA Transcription by PUF60/FIR through TFIIH/P62 as a Novel Therapeutic Target for Cancer” (International Journal of Molecular Sciences, 2023).

Key:
[1] = molecular target: T1, FUBP1-interacting repressor (FIR) (human, UniProt Q9UHX1-2 1-542); experiment: ITC; second step of two-step fit, 30°C, pH 7.2
T1 chain: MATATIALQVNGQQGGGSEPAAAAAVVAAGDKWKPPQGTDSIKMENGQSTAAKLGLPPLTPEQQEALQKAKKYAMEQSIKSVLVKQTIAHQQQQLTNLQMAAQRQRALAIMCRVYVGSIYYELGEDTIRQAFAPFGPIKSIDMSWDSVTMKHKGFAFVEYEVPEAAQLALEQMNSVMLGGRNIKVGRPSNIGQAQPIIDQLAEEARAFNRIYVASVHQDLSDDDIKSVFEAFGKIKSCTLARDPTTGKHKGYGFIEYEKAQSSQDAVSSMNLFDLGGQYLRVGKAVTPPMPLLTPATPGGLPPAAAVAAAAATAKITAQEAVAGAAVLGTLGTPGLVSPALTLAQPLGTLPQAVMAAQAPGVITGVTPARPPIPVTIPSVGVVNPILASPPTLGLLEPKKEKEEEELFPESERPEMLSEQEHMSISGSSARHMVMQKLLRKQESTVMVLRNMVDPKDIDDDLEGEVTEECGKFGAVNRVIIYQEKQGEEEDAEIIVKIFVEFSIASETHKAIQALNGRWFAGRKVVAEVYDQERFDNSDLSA

[2] = molecular target: T1, FUBP1-interacting repressor (FIR); experiment: ITC; first step of two-step fit, 30°C, pH 7.2
[3] = molecular target: T2, FUBP1-interacting repressor (FIR) (human, UniProt Q9UHX1-2 1-542); experiment: ITC; MicroCal VP-ITC, 30 °C, 50 mM phosphate buffer pH 7.2; cell: 4 μM wild FIR or 14.5 μM FIR∆exon2; syringe: 44 or 145 μM TFIIH p62 PH domain; 25 injections of 10 μL; details: both partners purified
T2 construct: also called FIR wild; wild FIR
T2 sequence (looked up): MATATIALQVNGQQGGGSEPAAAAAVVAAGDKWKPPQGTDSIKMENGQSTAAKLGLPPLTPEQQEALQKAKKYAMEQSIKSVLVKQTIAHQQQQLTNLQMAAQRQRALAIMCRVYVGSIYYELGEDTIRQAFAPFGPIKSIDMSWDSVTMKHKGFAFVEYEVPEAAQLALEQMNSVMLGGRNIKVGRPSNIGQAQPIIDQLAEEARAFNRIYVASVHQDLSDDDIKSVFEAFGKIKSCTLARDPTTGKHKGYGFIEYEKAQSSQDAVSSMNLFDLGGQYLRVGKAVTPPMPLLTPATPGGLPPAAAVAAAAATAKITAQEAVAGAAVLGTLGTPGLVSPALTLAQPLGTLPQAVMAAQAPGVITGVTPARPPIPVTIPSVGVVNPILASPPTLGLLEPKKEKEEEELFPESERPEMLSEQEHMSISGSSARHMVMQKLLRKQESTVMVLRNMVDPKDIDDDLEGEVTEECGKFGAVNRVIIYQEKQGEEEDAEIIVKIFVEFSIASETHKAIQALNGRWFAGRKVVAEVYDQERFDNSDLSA

Ka [1]: 2.3e+06 M⁻¹ | Ka [2]: 1.9e+07 M⁻¹ | Ka [3]: 2.34e+07 M⁻¹
B1: TFIIH p62 PH domain (domain or fragment, UniProt P32780 1-108, looked up)
chain: MATSSEEVLLIVKKVRQKKQDGALYLMAERIAWAPEGKDRFTISHMYADIKCQKISPEGKAKIQLQLVLHAGDTTNFHFSNESTAVKERDAVKDLLQQLLPKFKRKAN
notes: pleckstrin homology (PH) domain of the P62 subunit of transcription factor IIH; also called P62 of TFIIH; P62 subunit of TFIIH
